# B1: Tissue plasminogen activator (protein, UniProt P00750 36-562, looked up)
# Tissue-type plasminogen …: SYQVICRDEKTQMIYQQHQSWLRPVLRSNRVEYCWCNSGRAQCHSVPVKSCSEPRCFNGGTCQQALYFSDFVCQCPEGFAGKCCEIDTRATCYEDQGISYRGTWSTAESGAECTNWNSSALAQKPYSGRRPDAIRLGLGNHNYCRNPDRDSKPWCYVFKAGKYSSEFCSTPACSEGNSDCYFGNGSAYRGTHSLTESGASCLPWNSMILIGKVYTAQNPSAQALGLGKHNYCRNPDGDAKPWCHVLKNRRLTWEYCDVPSCSTCGLRQYSQPQFRIKGGLFADIASHPWQAAIFAKHRRSPGERFLCGGILISSCWILSAAHCFQERFPPHHLTVILGRTYRVVPGEEEQKFEVEKYIVHKEFDDDTYDNDIALLQLKSDSSRCAQESSVVRTVCLPPADLQLPDWTECELSGYGKHEALSPFYSERLKEAHVRLYPSSRCTSQHLLNRTVTDNMLCAGDTRSGGPQANLHDACQGDSGGPLVCLNDGRMTLVGIISWGLGCGQKDVPGVYTKVTNYLDWIRDNMRP
# Test system: blood clots
# Assay: Blood clot resolution in murine mesentery venules
# Type: in vivo
# From the text: Here, a novel thrombolytic nanoagent is realized by conjugating directly the clinical formulation of tPA to the porous structure of soft discoidal polymeric nanoconstructs (tPA-DPNs).
molecule,measurement,setting,value
B1,clots dissolved / vessels,"1.0 mg/kg, about 1 tenth of the clinical dose",16%
same,blood clots resolved / vessels recanalized,"intravenous, 2.5 mg/kg",about 40%

# Source: publication PMC6359636, “Advances in Drug Delivery and Biomaterials: Facts and Vision” (Pharmaceutics, 2019)
